Experimental findings from the DeepSol protein solubility set are described below.

A short description of the series: soluble on expression in E. coli; label from the status in PepcDB or PDB records.
Regarding “MGSDKIHHHHHHMHPNIATLLSANLGESRTRHLLSLVSVPDGLPSDAEGRATRAEIAQALNMVLFAGILDRVPTGRAYTDDVAATGGKVVFDHGALRTVKWRDNGALPEGEAAFTRILRPLGYRLNGNYPLDRISMTGRSYAHADAPEGIAQFFVSEFHPERFSDAFREAVGRVTGNSADPLTPRAQTLLWQLDRDGVLTVADGAELIGLLVPCFERQHGVPRLADYETLLRESAEMAWIATEGNAFNHATDRVDDVFGLSEQQKALGRPMKDKVEVSGSGRVKQTAFRADTVRRQFIGAQGETVERDVPGSFYEFITRDRFADAPAASPRVDLGFDAGNAQGIFKMTAAV”, the “soluble on expression in E. coli” value was “not soluble”.

Consider “SENVPFASKERADIFSMRTLIDFGGIAILHAYQSRISEYIAEKELSAMNVILKSQYDQYRNYQDSLDLIQMKYHDLKHQITALRAESDAEKRKKWIDAMEEEVSAFENMSKTGNQVLDTILAAKIFHCRKNHIQITCVADGKLLDFIHVTDLCSIFGNALDNAIEHVIMIPEAEKRLIHLTVSAKKSFVFIKIENYCEDKIQKNENDLITTTKADRQNHGFGLKSIRTVVEKYNGSVDFGVDQNWFELKILLPRVM”, for which the “soluble on expression in E. coli” value is recorded as “not soluble”. Consider “MGSDKIHHHHHHMTEGSQQKRVVVVGAGWAGLGATYHLAKQGYDVTLLEAGPYPGGLVAGWQTTGGKSVEAGIHGFWYPYRNIFALINELNIHPFTTWTRSAQYSPAGLEVESPIFQDLPRLPTPLGTFIYTQFQRLPLIDRLSALPLLYAVVDFDNSDAAWRRYDSVTARELFKDFGVSARLYKEAFEPMLLVGLFAPGEQCSAAATLGMLYFFILAHQADFDVVWCRGTVGEKIFRPWVERIEKAGAKVLPKHRVTDLIIDSNNQATGVVCGNEVFDADAVIFAVGITGMKKIVSSSPSLQSRAEFRNLHNLGAIDVLATRLWFDRKIDIPRPSNACFGFDNTTGWTFFDLNALHDEYKNELGTVIEADFYHANQFLNWSDAEIVATVQNYLTTCVPGFAQAKVIDSSVIRLPQAVTHFAPGSYPYMLPAKTSFDNVFMSGDWIVNRHGSWSQEKAYVTGLEAANLVVSHLGEGTPVEILPVEADETHIQVARSLNQTVRKLGKFILPNFWLP”, for which the “soluble on expression in E. coli” value was “not soluble”. Then “QVEVIVMMHGRSTATSMVETVQELLSIESGIALDMPLTVEVKAMYEKLKQTVVKLNPVKGVLILSDMGSLTSFGNILTEELGIRTKTVTMVSTPVVLEAMRKASLGRGLEDIYQSCEQLFENKYKAHVLRAKP”, with “not soluble”; and “MSLSKRSIPNVDWANQLENAIRQFVKEKLELIMREEIKNFLEIEQAGTPNMRNGYYQRNLDTQYGRIEGLLVPRDRNGEFQTQLFAPYQRHTGWLEEAIIRMYQSGMSTREIGKFIERILGSTYSPATISRITDVVKEDIEKWHARPLHQRYSVLYLDGLYVKLRRDTVEKEVIYVVLGVNEEGYREILDFFVGGQESAYVWQEILQQLYKRGVKEVLLGVFDGLPGLEEAFKAVYPKADVQRCVVHKVRNTLSRVRKKDQFEMAEDLKLIYRSPNKEIALEMFQQFQSKWSHKYPREVQSWANELDVLLTFMDYPSSIRSVIYTTNAIERTIKEIRKRLKPMNSLSSLEAAEKVVYLTIQDFNEKWAGRKLRGFAEAQEALQRMFEEREGHHHHHH”, with “not soluble”; and “MLHITLHQLKIFESVARLLNFTHAAEELHLTQPAVSIQIKRLEEMVALPLFEQIGKRVHLTEAGKELFHYSRGITRQLADMELALDELKGLERGKLSISVVSTANYFVPNLLAKFCQRYPGITISLHVSNRENVLKQLSDNIMDLAIMGQPPEGLDITSESFMENPLVIIAPPEHPLCGQKQIPVKRLEQEIFLVREPGSGTRNAMERFFAHEKISIQKGMEADTAEAIKQAIQAGMGLGIMSLHTIRLELEAGRLKILDIQGLPIMRYWNVVHQKNKRLSNISSVFKQFLLNEAADLVALEYPHRNTT”, with “not soluble”.

Take “MSHPVVIKENMTVYDAICTIFLEDVSTLFITNENNDFVGVCSRKDLLRASMIGEDIHTMPISVNMTRMPHVSYLKEQELVIYAANQMIDKEIDSLPIVRPKENDKFEVIGRISKTTITKLFVSLFKE”: the “soluble on expression in E. coli” value is listed as “not soluble”.

In the case of “MQGTRVMHIFVLSKRKITMNVDNVKSQMRKGMLEYCIMLLLHKEPAYASDIIQKLKEAQLIVVEGTLYPLLTRLKNDDLLSYEWVESTQGPPRKYYKLTEKGEAFLGELEISWKELNETVNHIASR”, the “soluble on expression in E. coli” value is reported as “not soluble”. Then “MKLMKKNTDDGAKIYTPLTLKLYDWWVLGVSNRLAWGCPTKEHLLPHFLEHLGNNHLDIGVGTGFYLTHVPESSLISLMDLNEASLNAASTRAGESKIKHKISHDVFDPYPAALHGQFDSISMFYLLHCLPGNISTKSCVIRNAAQALTDDGTLYGATILGDGVVHNSFGQKLMRIYNQKGIFSNTKDSEEGLTHILSEHFENVKTKVKGTVVMFSASGKK”, with “not soluble”; and “MQPWQTDPTRAPVATKIVVAGGFGVGKTTLVTAVSEITPLQTEALMTEASEETDDLTATPGKLTTTVAMDFGRITLDDDLVLYLFGTPGQQRFWFMWDDLVRGAIGAVVLADTRRLKDCWPALDYFESCGLPYVVAVNHFDGSELFEAEDVREALTIPAHIPVMIMDARRRISAIETLLSLVGHALDETPELEHHHHHH”, with “not soluble”; and “MSLGQDGFRLADYIREHVENGDKLVIRVSYHNTSLGFANPMREGVEKAKRELGVDAELIGPANGSAQEQVSELQTLISQQKVDGLAVSSASNDALKPVIAQAYNAGIPIISFNTNNPGSKQMAFVGQDLVQSGRFEAEQLRKELGDRKGKVVVFSVDTGAGWSNDRFSGFEAGMEGAEGIQIEGPINSGNEPRQAFNAVQNTMTANPDAIAIASLDCCSVDAAAKWVQQNGKKGEIIVVGFDVLPQTADFIRNGVIQFTISQNPVEQGYQSVKILNDFLKKNKPLRDVNTGTKLVDKSNIDEVPLEEGHHHHHH”, with “soluble”. In the case of “MSLTITENPYRLSLDIEGIGFQTADAIATSLGVAKNSLMRAEAGISHVLGELSQNGHCAVPEETLIDEASRLLQIDHPLVVEAVKNEKLTRRIVGETIDGVPCIFLESLHRAETGVASGLHRLMRGPLPWNALDPHDALPWIEETTALELSPSQRSAVTLVLASKVSIITGGPGVGKTTILKAILSVLQREKVSVALCAPTGRAAKRLTESTGIEAKTIHRLLEFDPQAFDFKRGRGNPLDASFVVVDETSMVDVVLMQKLVAAIPDHAAVVFVGDVDQLPSVGPGAVLADMISSEAIPTVRLTEIFRQAAESMIVVNAHRINQGDMPLTEGHHHHHH” it was “soluble”.

Regarding “MFRIGQGFDVHQLVEGRPLIIGGIEIPYEKGLLGHSDADVLLHTVADACLGAVGEGDIGKHFPDTDPEFKDADSFKLLQHVWGIVKQKGYVLGNIDCTIIAQKPKMLPYIEDMRKRIAEGLEADVSQVNVKATTTEKLGFTGRAEGIAAQATVLIQKG”, the “soluble on expression in E. coli” value is recorded as “not soluble”. Then “MNLPGAAEPQGGNEIPEYTGVAWHYGQPLVEQRYFERSGGFVDRSHRGVLCISGEDAAVFLNNLVSQKLIDLPHPWAGEALDLDIQGHVVHHMEIIATDEVFYVHVPAAQLESLHTFFTRMIFWSKVTIEVIDAAVISVISAQHLDALVDVPLPEALAVSPVIDFSLPRRDILVPRASLMAVAASLQEHGFQPAGMMAYTAARVRSVQPVMSLDMDATTIPHEAASLIGRGDHIGAVHLNKGCYRGQETVGRVENLGRSPRVLVMVLIDGSAPEQPHPAAPLTAGGRTVGFLGTVVDDFELGPIGLAVVKRSALKSATLQAGDDVALSIDPDSLPHDDGEKAGRVAINKLRGL”, with “not soluble”; and “MAHHHHHHMNEVVPHVAELMTDQYANFLIQKLFDMMPQDVRYKVARVAAPKIISIALTPHGTFSVQKMVETIASREEMDILREALSKDVVRLVKDAHGNHVIQKVLQRFSHADKEFIYAAVGSDCISIAKNKQGCCVLQRCLEYASCSQRATLVNQILRCCLQIAEDPFGNYVLQYVLESNDSKTTDTIAIAFLPHLVQLCMNKFSSNVIEKVLRGASQPVQEMYVETMCSPDVVSRLIQDDFGNYVLQTALTICSSAQAESLVSAVRPLMPIIRNAPYAKKLEGKIDGIVHKTAGNDRNSFAEYEKSRQGEMNEQNCDILLPHHARESSVAPHQQLSS”, with “not soluble”; and “MGSDKIHHHHHHMENERKRILELVKQGIISTEEALTLLENISKKEGKTAAKENIRRSAAPREEEQVEEETKEEPSYDYSKGWNNQGNPYTPPKSRKRRPEPTPENHERDEEEGGENSSKDREDSMRNMVNDLSQAGEKIGSFLNSAFKQVKDMPFPFLTSTKIERDFIYHDTTLSILEFEIANGNIEFKPSDSNDIKVHAMIKLFKEYPEDEALKIFFDKTTLRVDEETLRFESKSKQIVTNLTVYLPRREYDYVSVKMLNGNFHMDELSGRDLFVKTTNGNISIGTLNATLAEIESINGNVRIQNGEIRDVALKTFNGNVAVKGNYYSTNLQTKNGNVNYQLTGNEATFLKAKTGAGNIDVVVPAAIGVDGRFHTNLGKLLLDLKDAEILESKTESVSKSIIFTKLPDAADSSLKIEAEATTGSVKIRDVK”, with “not soluble”. Then “MSNFISPVYEIKSIPIEKISPNDYNPNSVAPPEMKLLYDSIKSDGYTMPIVCYYDKEEDRYSIVDGFHRYRIMLDYSDIYERESGRLPVSVIDKSLDYRMASTIRHNRARGSHD”, with “not soluble”; and “MSLGNAPLPFDVGGPFELTDQHGARRSQADPQGHGQLLFFGYATCPGICSAAMPMMADAVDRLAEAGIPVTPVMITVDPERDRPGEMNAPLARYHPDFIGLTGSEAELQAAYSAYSVERELAYVDPEYGPVYTHGAFIYLLDAKGEVLSLFPPILSSDRVVELARKYLGSEGEGHHHHHH”, with “soluble”. Then “MIVAFCLYKYFPFGGLQRDFMRIASTVAARGHHVRVYTQSWEGDCPKAFELIQVPVKSHTNHGRNAEYYAWVQNHLKEHPADRVVGFNKMPGLDVYFAADVCYAEKVAQEKGFLYRLTSRYRHYAAFERATFEQGKSTKLMMLTDKQIADFQKHYQTEPERFQILPPGIYPDRKYSEQIPNSREIYRQKNGIKEQQNLLLQVGSDFGRKGVDRSIEALASLPESLRHNTLLFVVGQDKPRKFEALAEKLGVRSNVHFFSGRNDVSELMAAADLLLHPAYQEAAGIVLLEAITAGLPVLTTAVCGYAHYIADANCGTVIAEPFSQEQLNEVLRKALTQSPLRMAWAENARHYADTQDLYSLPEKAADIITGGLDG”, with “soluble”; and “MMKQALRVAFGFLILWASVLHAEVRIVIDSGVDSGRPIGVVPFQWAGPGAAPEDIGGIVAADLRNSGKFNPLDRARLPQQPGSAQEVQPAAWSALGIDAVVVGQVTPNPDGSYNVAYQLVDTGGAPGTVLAQNSYKVNKQWLRYAGHTASDEVFEKLTGIKGAFRTRIAYVVQTNGGQFPYELRVSDYDGYNQFVVHRSPQPLMSPAWSPDGSKLAYVTFESGRSALVIQTLANGAVRQVASFPRHNGAPAFSPDGSKLAFALSKTGSLNLYVMDLASGQIRQVTDGRSNNTEPTWFPDSQNLAFTSDQAGRPQVYKVNINGGAPQRITWEGSQNQDADVSSDGKFMVMVSSNGGQQHIAKQDLATGGVQVLSSTFLDETPSLAPNGTMVIYSSSQGMGSVLNLVSTDGRFKARLPATDGQVKFPAWSPYLLEHHHHHH”, with “soluble”; and “MASPSKAVIVPGNGGGDVTTHGWYGWVKKELEKIPGFQCLAKNMPDPITARESIWLPFMETELHCDEKTIIIGHSSGAIAAMRYAETHRVYAIVLVSAYTSDLGDENERASGYFTRPWQWEKIKANCPYIVQFGSTDDPFLPWKEQQEVADRLETKLHKFTDCGHFQNTEFHELITVVKSLLKVPALEHHHHHH”, with “soluble”.
